Laboratory results from article PMC8102515.
Where “and” joins values, the source holds several entries; their conditions need not be identical. Equal entries are not always repeated.

T1: human peroxiredoxin 6 (human), P30041
T1 chain: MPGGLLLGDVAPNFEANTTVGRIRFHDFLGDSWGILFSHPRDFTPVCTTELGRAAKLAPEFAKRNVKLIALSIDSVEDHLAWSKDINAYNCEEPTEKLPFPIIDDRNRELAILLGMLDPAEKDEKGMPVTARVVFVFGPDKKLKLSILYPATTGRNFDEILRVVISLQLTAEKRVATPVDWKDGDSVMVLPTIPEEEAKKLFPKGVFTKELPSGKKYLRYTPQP

B1: human peroxiredoxin 6, P30041 1-224 (enzyme)
chain: T1 chain
B2: human peroxiredoxin 6 (protein)
chain: T1 chain

Tests used:
[1] = molecular target: T1, human peroxiredoxin 6 (human), P30041; test: dynamic light scattering; hPrdx6 1.0 mg/ml, pH 8.0; fixed angle of 90°, laser 689 nm; settings: remark: other sources report otherwise
[2] = molecular target: T1, human peroxiredoxin 6 (human), P30041; test: dynamic light scattering; hPrdx6 1.0 mg/ml, pH 5.0; fixed angle of 90°, laser 689 nm; two peaks; settings: remark: other sources report otherwise
[3] = molecular target: T1, human peroxiredoxin 6 (human), P30041; test: dynamic light scattering; hPrdx6 1.0 mg/ml, pH 9.0; fixed angle of 90°, laser 689 nm; settings: remark: other sources report otherwise
[4] = molecular target: T1, human peroxiredoxin 6 (human), P30041; test: dynamic light scattering; hPrdx6 1.0 mg/ml, pH 3.0; fixed angle of 90°, laser 689 nm; settings: remark: other sources report otherwise
[5] = molecular target: T1, human peroxiredoxin 6 (human), P30041; test: dynamic light scattering; hPrdx6 1.0 mg/ml, pH 4.0; fixed angle of 90°, laser 689 nm; oligomer told from the hydrodynamic diameter; settings: remark: other sources report otherwise
[6] = molecular target: T1, human peroxiredoxin 6 (human), P30041; test: dynamic light scattering; hPrdx6 1.0 mg/ml, pH 10.0; fixed angle of 90°, laser 689 nm; settings: remark: other sources report otherwise
[7] = molecular target: T1, human peroxiredoxin 6 (human), P30041; test: dynamic light scattering; hPrdx6 1.0 mg/ml, pH 7.0; fixed angle of 90°, laser 689 nm; oligomer told from the hydrodynamic diameter; settings: remark: other sources report otherwise
[8] = molecular target: T1, human peroxiredoxin 6 (human), P30041; test: dynamic light scattering; hPrdx6 1.0 mg/ml, pH 2.0; fixed angle of 90°, laser 689 nm; two peaks; settings: remark: other sources report otherwise
[9] = molecular target: T1, human peroxiredoxin 6 (human), P30041; test: dynamic light scattering; hPrdx6 1.0 mg/ml, pH 6.0; fixed angle of 90°, laser 689 nm; settings: remark: other sources report otherwise
[10] = molecular target: P30041; test: dynamic light scattering; hPrdx6 1.0 mg/ml, pH 2.0; fixed angle of 90°, laser 689 nm; two peaks; settings: other: dynamic light scattering

Row | Binder | stoichiometry N [1] | volume fraction of the dimer peak (Hd 6.31 nm) [1] [%] | stoichiometry N [2] | volume fraction of the dimer peak (Hd 6.39 nm) [2] [%] | volume fraction of the tetramer peak (Hd 13.44 nm) [2] [%] | stoichiometry N [3] | volume fraction of the dimer peak (Hd 6.4 nm) [3] [%] | stoichiometry N [4] | volume fraction of the tetramer peak (Hd 12.2 nm) [4] [%] | stoichiometry N [5] | volume fraction of the tetramer peak (Hd 13.75 nm) [5] [%] | stoichiometry N [6] | volume fraction of the dimer peak (Hd 6.3 nm) [6] [%] | stoichiometry N [7] | volume fraction of the dimer peak (Hd 7.1 nm) [7] [%] | stoichiometry N [8] | volume fraction of the larger peak (Hd 14.17 nm; the text's dimer) [8] [%] | stoichiometry N [9] | volume fraction of the dimer peak (Hd 8.12 nm) [9] [%] | volume fraction of the monomer peak (Hd 3.7 nm) [10] [%]
1 | B1 | 2 | 100 | 2 and 4 | 29.8 | 70.2 | 2 | 100 | 4 | 99.2 | 4 | 99.6 | 2 | 100 | 2 | 100 | 2 | 30.2 | 2 | 100 | 
2 | B2 |  |  |  |  |  |  |  |  |  |  |  |  |  |  |  |  |  |  |  | 69.8
